From patent US9012420B2, “Aptamer for chymase, and use thereof” (Ribomic Inc., priority 2009, dated 2015)
Oligonucleotides are written 5' to 3', each unit as a sugar letter and its base; * is a phosphorothioate linkage, no mark a phosphodiester; rarer units and linkages stand in square brackets, end groups in braces. Plain capitals give the bases only. r = 2'-OH (RNA); f = 2'-fluoro

T1: chymase (recombinant, manufactured by SIGMA) (Homo sapiens, UniProt P23946)
T1 construct: purchased SIGMA; host or cells: yeast
T1 sequence (P23946 22-247): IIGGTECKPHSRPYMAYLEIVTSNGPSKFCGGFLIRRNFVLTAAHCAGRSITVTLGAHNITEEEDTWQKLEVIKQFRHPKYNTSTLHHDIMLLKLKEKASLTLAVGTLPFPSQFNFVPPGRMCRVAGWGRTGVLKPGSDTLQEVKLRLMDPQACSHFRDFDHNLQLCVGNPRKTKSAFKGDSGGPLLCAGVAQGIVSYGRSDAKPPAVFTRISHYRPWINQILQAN

T2: chymase (Homo sapiens, UniProt P23946)
T2 sequence (P23946 22-247): T1 sequence (P23946 22-247)

B1: 29 (nucleic acid)
chain: rGrGrGrAfCrGrGfUrArGrGrArAfUfUfCrAfCrGrAfCfCrGfCfCfCrArArArArArAfUrGrGfUrGrAfCrAfUfUfUfUrArGrArArAfCrAfCfCrGrArAfCrAfUrArGrArArGrArGfCrGrGfCfCrGfC
modifications: aptamer
B2: 28 (nucleic acid)
chain: rGrGrGrAfCrGrGfUrArGrGrArAfUfUfCrArAfUfUfUfCfUfUfUfCfUrAfUfUfCfUfCrAfCfCfUrGrArGfUrAfUrAfUfCrArGrGfCrAfCrArGfUrAfCrAfUrArGrArArGrArGfCrGrGfCfCrGfC
modifications: aptamer
B3: 16 (nucleic acid)
chain: rGrGrGrAfCrGrGfUrArGrGrArAfUfUfCfCfCrAfUrGrAfCfUrGrArArArArAfCrGfUfCrArGfUrArArArAfUfCfCrGrArArArAfUfCrAfUrAfUfCrAfUrArGrArArGrArGfCrGrGfCfCrGfC
modifications: aptamer
B4: 20 (nucleic acid)
chain: rGrGrGrAfCrGrGfUrArGrGrArAfUfUfCrArArArAfUfCrArGfCfUrGrAfUfUfUrGfUrArAfUfUfUfUfUfUfUrAfCrAfCrArGrGfCrArArArAfCrAfCrAfUrArGrArArGrArGfCrGrGfCfCrGfC
modifications: aptamer
B5: 22 (nucleic acid)
chain: rGrGrGrAfCrGrGfUrArGrGrArAfUfUfCfCfCrGrAfCrAfCrArArArAfUrGfUrGfUrGrAfUfUrArAfUfUfCfCrGrArAfCrArAfCrArArArGfUrArAfCrAfUrArGrArArGrArGfCrGrGfCfCrGfC
modifications: aptamer
B6: 18 (nucleic acid)
chain: rGrGrGrAfCrGrGfUrArGrGrArAfUfUfCrGrArAfCrGrAfCrArArAfUfUrAfUrArGrArAfCfUfUfCrGfUfUfUrGrAfCrAfUfUfCfCrAfCrAfCfCrAfCrAfUrArGrArArGrArGfCrGrGfCfCrGfC
modifications: aptamer
B7: 19 (nucleic acid)
chain: rGrGrGrAfCrGrGfUrArGrGrArAfUfUfCfCfCrAfCfUrGfCrArAfUfUfCrArGfCrArGrArArArArArAfUfUfCfCrGrArArArArAfCrAfCrAfCrAfCfCrAfUrArGrArArGrArGfCrGrGfCfCrGfC
modifications: aptamer
B8: 24 (nucleic acid)
chain: rGrGrGrAfCrGrGfUrArGrGrArAfUfUfCfCfCfUfUfCrAfUrArGfUrArGrArAfUrGfUfUrGrGfUfUfUfCfUrAfCrArArArArGfCrGrAfCrArArGfCrAfUrArGrArArGrArGfCrGrGfCfCrGfC
modifications: aptamer
B9: 30 (nucleic acid)
chain: rGrGrGrAfCrGrGfUrArGrGrArAfUfUfCrGfUfCfCfCfUfCfUfUrGfUfCfUrAfUfUfUfUrGfCrArGrAfUrArGrAfCfUfUrArArArGfCrArArAfCrAfUrArGrArArGrArGfCrGrGfCfCrGfC
B10: 25 (nucleic acid)
chain: rGrGrGrAfCrGrGfUrArGrGrArAfUfUfCrArGfCfUrGrAfCfUfCfCrArAfUrGfCrAfCrAfCrGfUrArGrAfUrArGrArGfUfUrArArArAfCrGfUfUrGfCrAfUrArGrArArGrArGfCrGrGfCfCrGfC
modifications: aptamer
B11: 26 (nucleic acid)
chain: rGrGrGrAfCrGrGfUrArGrGrArAfUfUfCrGfUfCrGrAfUfUfCfUrAfCrArGrAfUrArGrArGrAfUrArArArGfUrArGrArAfUfUfUrArAfCrArArArAfCrAfUrArGrArArGrArGfCrGrGfCfCrGfC
modifications: aptamer
B12: 17 (nucleic acid)
chain: rGrGrGrAfCrGrGfUrArGrGrArAfUfUfCfCrGfUfUfCrGfCrArGrArArAfCrGrArAfCfUfUfUfUrArArArArArAfUrGfUrAfCrGfUrGrGrGrArGfCrAfCrAfUrArGrArArGrArGfCrGrGfCfCrGfC
B13: 27 (nucleic acid)
chain: rGrGrGrAfCrGrGfUrArGrGrArAfUfUfCfCrGfUfCrAfUfCrGrGfUfUrGfCrArArAfUfUrGrArArArAfUrAfCrArArArAfCrArArGrGrAfCrArAfCfCrAfUrArGrArArGrArGfCrGrGfCfCrGfC
modifications: aptamer
B14: 23 (nucleic acid)
chain: rGrGrGrAfCrGrGfUrArGrGrArAfUfUfCrAfUrAfUrGfUrAfCfUfCfCrGfUfCfCfUrGrAfCrArArArAfUrGfUfCrArAfUrGrAfCrArArAfCrGfUfUfCrAfUrArGrArArGrArGfCrGrGfCfCrGfC
modifications: aptamer
B15: 31 (nucleic acid)
chain: rGrGrGrAfCrGrGfUrArGrGrArAfUfUfCrGfUfCfCfCfUfCrAfUrGfUfCfUrAfUfUfUfUrGfCrArGrAfUrArGrAfCfUfUrArArArGfCrArArAfCrAfUrArGrArArGrArGfCrGrGfCfCrGfC

Legend:
[1] = target: T1, chymase (recombinant, manufactured by SIGMA); test: Chymase inhibitory activity using synthetic substrate Suc-Ala-Ala-Pro-Phe-MCA; assay type: biochemical; settings: Table 3; substrate 100 μM, solution C, 37° C.; mean value for 2 to 3 measurements
Experimental: A first method employs a synthetic substrate. A useful chymase substrate is Suc-Ala-Ala-Pro-Phe-MCA (4-methylcoumaryl-7-amide group) (manufactured by Peptide Institute, Inc.), which contains the 4-amino acid peptide “Ala-Ala-Pro-Phe”, a standard substrate for chymotrypsin-like proteases.
The assay is performed using a 96-well plate (F16 Black Maxisorp Fluoronunc, manufactured by Nunc), with a reaction mixture volume of 100 μL, in a buffer solution (solution C; see Example 2 below). First, each nucleic acid is prepared in solution C to obtain 50 μL solutions. After 10 μL of the 1 mM substrate prepared in solution C is added, the plate is set to the microplate reader SpectraMax190 (manufactured by Molecular Devices Corporation), and incubated at 37° C. for 5 minutes. Separately, 0.05 μg of chymase (recombinant, manufactured by SIGMA) is diluted in solution C, and 40 μL of this dilution is incubated at 37° C. for 5 minutes. The chymase solution is added to the mixture of the nucleic acid and substrate to initiate an enzyme reaction. The plate containing the reaction mixture is set to the microplate reader SpectraMax190 (manufactured by Molecular Devices Corporation), and examined for time-dependent changes in the fluorescence intensity at 37° C. for 5 minutes (excitation wavelength 380 nm, detection wavelength 460 nm). A linear approximation of the increase in the fluorescence of the AMC (7-amino-4-methylcoumarine) released from the substrate by chymase activity is generated, and its slope is taken as the initial reaction velocity. For control, samples are treated and analyzed in the same manner in two cases: use of a nucleic acid pool containing a random sequence of 30 or 40 nucleotides (negative control), and use of chymostatin, a known chymotrypsin-like serine protease inhibitor (positive control). Taking the initial reaction velocity without the nucleic acid and inhibitor as a 100% enzyme activity, the inhibitory rate for each test substance is calculated, and the inhibitor concentration required to cause a 50% inhibition of the enzyme activity (IC50) is determined.
Whether the nucleic acids shown by SEQ ID NO: 4-20, 22-34, and 38-48 inhibit the enzyme activity of chymase was determined as described below. The chymase substrate used was Suc-Ala-Ala-Pro-Phe-MCA (manufactured by Peptide Institute, Inc.), which contains the 4-amino-acid peptide Ala-Ala-Pro-Phe, a standard substrate for chymotrypsin-like proteases. Here, Suc is a protecting succinyl group, and MCA is a 4-methylcoumaryl-7-amide group; upon cleavage of the C-terminal side of phenylalanine, AMC (7-amino-4-methylcoumarine) is released. By detecting the fluorescence of this AMC, the enzyme activity of chymase can be determined. The assay was performed using a 96-well plate (F16 Black Maxisorp Fluoronunc, manufactured by Nunc), with a reaction mixture volume of 100 μL, in solution C as a buffer solution. First, each nucleic acid was serially diluted to 0.0027-2 μM concentrations in solution C to obtain 50 μL solutions. After 10 μL of the 1 mM substrate prepared in solution C was added thereto, the plate was set to the microplate reader SpectraMax190 (manufactured by Molecular Devices Corporation), and incubated at 37° C. for 5 minutes. Separately, 0.05 μg (or 0.005 μg) of chymase (recombinant, manufactured by SIGMA) was diluted in solution C to obtain a 40 μL chymase solution, and incubated at 37° C. for 5 minutes. The chymase solution was added to the mixture of the nucleic acid and substrate to initiate an enzyme reaction. The final chymase concentration in the reaction mixture was 16.7 nM (or 1.67 nM), the final substrate concentration being 100 μM. The plate containing the reaction mixture was set to the microplate reader SpectraMax190 (manufactured by Molecular Devices Corporation), and examined for time-dependent changes in the fluorescence intensity at 37° C. for 5 minutes (or 30 minutes) (excitation wavelength 380 nm, detection wavelength 460 nm). […]

[2] = target: T2, chymase; test: Surface plasmon resonance (Biacore T100), aptamer immobilized on SA chip, chymase injected as analyte; assay type: binding; set-up: key: ++: a sequence that binds to chymase significantly more strongly than the negative control 40N; +: a sequence that binds to chymase equivalently compared with the negative control 40N; settings: Table 1; about 1000 RU nucleic acid immobilized, chymase 0.2 μM analyte, running buffer solution A; compared with 40N
Experimental: Binding strength is measured using Biacore T100 (manufactured by GE Healthcare). In a method of measurement, the aptamer is first immobilized onto a sensor chip, the amount immobilized being about 1000 RU. 20 μL of a chymase solution for analyte, prepared at 0.2 μM, is injected, and the binding of chymase to the aptamer is detected. An RNA comprising a random nucleotide sequence of 30 or 40 nucleotides is used as a negative control.
The binding activities against chymase of the nucleic acids shown by SEQ ID NO: 4-20 and 22-34 were determined by the surface plasmon resonance method using Biacore T100 (manufactured by GE Healthcare). The sensor chip used was the SA chip, which had streptavidin immobilized thereon. Bound thereto was about 1500 RU of a 16-nucleotide Poly dT with biotin bound to the 5′ end thereof. […] 20 μL of chymase for analyte, prepared at 0.2 μM, was injected. Solution A was used as a running buffer.
The binding activities against chymase of the nucleic acids shown by SEQ ID NO: 38-48 were evaluated by the surface plasmon resonance method. In the evaluations for SEQ ID NO: 38-48, measurements were taken in the same manner as Example 1. Solution C was used as a running buffer.

Molecule | IC50 [1] | Binding activity as determined using Biacore [2]
B1 | > 500 nM | ++
B2 | 45 ± 4 nM | +
B3 | > 500 nM | ++
B4 | 282 ± 13 nM | +
B5 | 105 ± 9 nM | +
B6 | 58 ± 21 nM | ++
B7 | 163 ± 1 nM | ++
B8 | 92 ± 3 nM | ++
B9 | 147 ± 44 nM | ++
B10 | 79 ± 28 nM | ++
B11 | 106 ± 4 nM | ++
B12 | 92 ± 42 nM | ++
B13 | > 500 nM | ++
B14 | 238 ± 60 nM | ++
B15 | 155 ± 39 nM | +
